Substrate in the data set: O=c1[nH]c(=O)n([C@H]2C[C@H](O)[C@@H](COP(=O)(O)O)O2)cc1/C=C/Br
In words: Enzyme kinetics of rHuTS with dUMP and BVdUMP. Type of data set: biochemical, human. Particulars: other: rHuTS; 37.0 °C. On the procedure: L. Enzyme Preparation. Cloned human thymidylate synthase plasmid pBCHTS was subcloned into E. coli. BL21 (DE3)/pET-28a(+) (Novagen) using the NdeI ñSacI insertion site, in order to add an amino terminal His tag. […] M. Enzyme Assays and Kinetic Measurements. […] Tetrahydrofolate stock solutions were prepared by dissolving tetrahydrofolic acid (Sigma) directly into 0.2 M Tris pH 7.5, 0.5 M-mercaptoethanol; stock solutions were stored at -80° C. […] N5, N10-methylene tetrahydrofolate was kept on ice and used within 2 hours of preparation. […] The catalytic efficiency of the enzyme (Kcat/Km) was calculated from the kinetic constants Km and Vmax.

Consider one protein from patent US7419968B1, “Methods for treating therapy-resistant tumors” (Celmed Oncology (USA), Inc., priority 1999, dated 2008).

B1: recombinant human thymidylate synthase (rHuTS) (Homo sapiens) (protein)
chain: MPVAGSELPRRPLPPAAQERDAEPRPPHGELQYLGQIQHILRCGVRKDDRTGTGTLSVFGMQARYSLRDEFPLLTTKRVFWKGVLEELLWFIKGSTNAKELSSKGVKIWDANGSRDFLDSLGFSTREEGDLGPVYGFQWRHFGAEYRDMESDYSGQGVDQLQRVIDTIKTNPDDRRIIMCAWNPRDLPLMALPPCHALCQFYVVNSELSCQLYQRSGDMGLGVPFNIASYALLTYMIAHITGLKPGDFIHTLGDAHIYLNHIEPLKIQLQREPRPFPKLRILRKVEKIDDFKAEDFQIEGYNPHPTIKMEMAV
notes: His tag (N); made in house; host or cells: E. coli BL21 (DE3), pET-28a(+)
Take B1: the Km is listed as 16 μM μM.
